Experimental data: article PMC4783868 (Nature, 2015)

T1: PB2 subunit of the influenza C/Johannesburg/1/1966 virus polymerase (FluPolC) (influenza C/Johannesburg/1/1966 virus, UniProt Q9IMP3)
T1 sequence: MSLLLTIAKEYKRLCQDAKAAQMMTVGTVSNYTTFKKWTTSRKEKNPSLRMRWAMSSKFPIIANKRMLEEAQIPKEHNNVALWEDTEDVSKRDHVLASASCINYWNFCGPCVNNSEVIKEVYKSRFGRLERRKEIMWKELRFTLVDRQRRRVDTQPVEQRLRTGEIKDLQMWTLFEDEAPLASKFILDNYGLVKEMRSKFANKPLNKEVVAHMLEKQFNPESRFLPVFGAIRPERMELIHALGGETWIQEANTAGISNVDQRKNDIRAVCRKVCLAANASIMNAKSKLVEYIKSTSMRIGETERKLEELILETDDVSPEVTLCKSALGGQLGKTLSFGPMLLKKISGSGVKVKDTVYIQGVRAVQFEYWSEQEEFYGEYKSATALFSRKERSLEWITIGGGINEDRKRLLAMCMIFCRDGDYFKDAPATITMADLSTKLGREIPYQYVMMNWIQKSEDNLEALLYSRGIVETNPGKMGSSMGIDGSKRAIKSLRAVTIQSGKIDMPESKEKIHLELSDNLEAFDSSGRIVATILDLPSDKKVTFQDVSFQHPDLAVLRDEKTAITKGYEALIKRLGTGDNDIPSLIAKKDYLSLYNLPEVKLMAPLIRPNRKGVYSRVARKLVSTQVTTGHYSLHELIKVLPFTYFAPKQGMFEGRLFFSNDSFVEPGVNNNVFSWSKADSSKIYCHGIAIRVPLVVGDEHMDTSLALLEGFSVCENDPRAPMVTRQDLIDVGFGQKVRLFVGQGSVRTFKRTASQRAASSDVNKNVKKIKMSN

B1: PB1 subunit of the influenza C/Johannesburg/1/1966 virus polymerase (FluPolC) (natural protein)
chain: MEINPYLMFLNNDVTSLISTTYPYTGPPPMSHGSSTKYTLETIKRTYDYSRTSVEKTSKVFNIPRRKFCNCLEDKDELVKPTGNVDISSLLGLAEMMEKRMGEGFFKHCVMEAETEILKMHFSRLTEGRQTYDWTSERNMPAATALQLTVDAIKETEGPFKGTTMLEYCNKMIEMLDWKEIKFKKVKTVVRREKDKRSGKEIKTKVPVMGIDSIKHDEFLIRALTINTMAKDGERGKLQRRAIATPGMIVRPFSKIVETVAQKICEKLKESGLPVGGNEKKAKLKTTVTSLNARMNSDQFAVNITGDNSKWNECQQPEAYLALLAYITKDSSDLMKDLCSVAPVLFCNKFVKLGQGIRLSNKRKTKEVIIKAEKMGKYKNLMREEYKNLFEPLEKYIQKDVCFLPGGMLMGMFNMLSTVLGVSTLCYMDEELKAKGCFWTGLQSSDDFVLFAVASNWSNIHWTIRRFNAVCKLIGINMSLEKSYGSLPELFEFTSMFFDGEFVSNLAMELPAFTTAGVNEGVDFTAAMSIIKTNMINNSLSPSTALMALRICLQEFRATYRVHPWDSRVKGGRMKIINEFIKTIENKDGLLIADGGKLMNNISTLHIPEEVLKFEKMDEQYRNRVFNPKNPFTNFDKTIDIFRAHGPIRVEENEAVVSTHSFRTRANRTLLNTDMRAMMAEEKRYQMVCDMFKSVFESADINPPIGAMSIGEAIEEKLLERAKMKRDIGAIEDSEYEEIKDIIRDAKKARLESR
B2: P3 subunit of the influenza C/Johannesburg/1/1966 virus polymerase (FluPolC) (natural protein)
chain: MSKTFAEIAEAFLEPEAVRIAKEAVEEYGDHERKIIQIGIHFQVCCMFCDEYLSTNGSDRFVLIEGRKRGTAVSLQNELCKSYDLEPLPFLCDIFDREEKQFVEIGITRKADDSYFQSKFGKLGNSCKIFVFSYDGRLDKNCEGPMEEQKLRIFSFLATAADFLRKENMFNEIFLPDNEETIIEMKKGKTFLELRDESVPLPFQTYEQMKDYCEKFKGNPRELASKVSQMQSNIKLPIKHYEQNKFRQIRLPKGPMAPYTHKFLMEEAWMFTKISDPERSRAGEILIDFFKKGNLSAIRPKDKPLQGKYPIHYKNLWNQIKAAIADRTMVINENDHSEFLGGIGRASKKIPEISLTQDVITTEGLKQSENKLPEPRSFPRWFNAEWMWAIKDSDLTGWVPMAEYPPADNELEDYAEHLNKTMEGVLQGTNCAREMGKCILTVGALMTECRLFPGKIKVVPIYARSKERKSMQEGLPVPSEMDCLFGICVKSKSHLNKDDGMYTIITFEFSIREPNLEKHQKYTVFEAGHTTVRMKKGESVIGREVPLYLYCRTTALSKIKNDWLSKARRCFITTMDTVETICLRESAKAEENLVEKTLNEKQMWIGKKNGELIAQPLREALRVQLVQQFYFCIYNDSQLEGFCNEQKKILMALEGDKKNKSSFGFNPEGLLEKIEECLINNPMCLFMAQRLNELVIEASKRGAKFFKTD

Molecular target: T1, PB2 subunit of the influenza …
Assay: crystal structure

Binder | binding result
B1 | binds
B2 | binds
